The text below walks through data of patent US20230086069A1.

This experiment has as its target cynomolgus CD19 (cynomolgus). The experiment in a line: BLI (Octet); cynomolgus CD19. A general note: Biolayer interferometry detects binding as a change in optical thickness at a sensor tip.

B1: SI-63C2 (recombinant mAb with H1 humanized anti-CD19 variable sequence) (antibody, V domains shown)
VH: QVTLKESGPGLVQPGQTLRLTCAFSGFSLSTSGMGVGWIRQPPGKGLEWLAHIWWDDDKRYNPALKSRLTISKDTSKNQVYLQMNSLDAEDTAVYYCARMELWSYYFDYWGQGTLVTVSS
VL: ENVLTQSPASLSASPGERVTITCSASSSVSYMHWYQQKPGQAPKLWIYDTSKLASGVPSRFSGSGSGNDHTLTISSMEPEDFATYYCFQGSVYPFTFGQGTKLEIKR
In the case of B1, the Kd (in general, the equilibrium constant for the complex coming apart) was 3.6 nM.
